Test results reported in paper PMC5645249.

B1: Synechococcus sp. PCC 7942 NR (ferredoxin-dependent nitrate reductase) (Synechococcus elongatus PCC 7942 = FACHB-805; K215R) (protein)
chain: MIDTAKTLCPYCGVGCGLEAVPPAQPGRATVRDREGTPIWQIRGDRQHPSSQGMVCVKGATVAESVSKSRLKYPMFRASLDDPFTEISWDEALDRLCDRIQQTQADYGKDGICFYGSGQFQTEDYYIAQKLVKGCLGTNNFDTNSRLCMSSAVSAYSLCLGSDGPPACYEDLDLADCLLIVGSNTAECHPILFNRYRKRHRQGGTNLIVVDPRCTPTAEVADLHLALKPGSDVALLNGLGWLLYQMGYVKKDFIANQTEGFEDWLAIIEDYPPQRTAELTGLAVAELVRAADLIASAQRWLSLWSMGVNQSIQGTAKATSLINLHLLTRQIGLPGCGPFSLTGQPNAMGGRETGGLAHLLPGYRKVIDPQHRADVETIWGLPMGSISPQPGRTAWQMIEGLEQGAVGFLWVAATNPAVSLPDVKRAQAALKRSPFTVLQDAYHPTETTTYAHLLLPAAQWSEKTGTMTNSERRVTLCQAFRQPPGEARADWQIFAEVGRRLGFAFDYTDAAAVFAEYVQVTAGRLCDLSGLSHELLAQAGPQQWPFPAGAEPTTESKRLYTKHHFAYADGRARFQPFHHLGVAEPPDDRYPLVLTVGRLYGHWHTQTRTGRIDKINKLHPSAFVEIHPRDADRYNISEGQAVVIRSRRGEGCFPAKVTTAISPGVLFVPMHWGALWGDRTEANALTHPAACPISGEPELKACAVQIEAASSTFTI
B2: Synechococcus sp. PCC 7942 NR (ferredoxin-dependent nitrate reductase) (Synechococcus elongatus PCC 7942 = FACHB-805; R57K) (protein)
chain: MIDTAKTLCPYCGVGCGLEAVPPAQPGRATVRDREGTPIWQIKGDRQHPSSQGMVCVKGATVAESVSKSRLKYPMFRASLDDPFTEISWDEALDRLCDRIQQTQADYGKDGICFYGSGQFQTEDYYIAQKLVKGCLGTNNFDTNSRLCMSSAVSAYSLCLGSDGPPACYEDLDLADCLLIVGSNTAECHPILFNRYRKRHKQGGTNLIVVDPRCTPTAEVADLHLALKPGSDVALLNGLGWLLYQMGYVKKDFIANQTEGFEDWLAIIEDYPPQRTAELTGLAVAELVRAADLIASAQRWLSLWSMGVNQSIQGTAKATSLINLHLLTRQIGLPGCGPFSLTGQPNAMGGRETGGLAHLLPGYRKVIDPQHRADVETIWGLPMGSISPQPGRTAWQMIEGLEQGAVGFLWVAATNPAVSLPDVKRAQAALKRSPFTVLQDAYHPTETTTYAHLLLPAAQWSEKTGTMTNSERRVTLCQAFRQPPGEARADWQIFAEVGRRLGFAFDYTDAAAVFAEYVQVTAGRLCDLSGLSHELLAQAGPQQWPFPAGAEPTTESKRLYTKHHFAYADGRARFQPFHHLGVAEPPDDRYPLVLTVGRLYGHWHTQTRTGRIDKINKLHPSAFVEIHPRDADRYNISEGQAVVIRSRRGEGCFPAKVTTAISPGVLFVPMHWGALWGDRTEANALTHPAACPISGEPELKACAVQIEAASSTFTI
B3: Synechococcus sp. PCC 7942 NR (ferredoxin-dependent nitrate reductase) (Synechococcus elongatus PCC 7942 = FACHB-805; R60K) (protein)
chain: MIDTAKTLCPYCGVGCGLEAVPPAQPGRATVRDREGTPIWQIRGDKQHPSSQGMVCVKGATVAESVSKSRLKYPMFRASLDDPFTEISWDEALDRLCDRIQQTQADYGKDGICFYGSGQFQTEDYYIAQKLVKGCLGTNNFDTNSRLCMSSAVSAYSLCLGSDGPPACYEDLDLADCLLIVGSNTAECHPILFNRYRKRHKQGGTNLIVVDPRCTPTAEVADLHLALKPGSDVALLNGLGWLLYQMGYVKKDFIANQTEGFEDWLAIIEDYPPQRTAELTGLAVAELVRAADLIASAQRWLSLWSMGVNQSIQGTAKATSLINLHLLTRQIGLPGCGPFSLTGQPNAMGGRETGGLAHLLPGYRKVIDPQHRADVETIWGLPMGSISPQPGRTAWQMIEGLEQGAVGFLWVAATNPAVSLPDVKRAQAALKRSPFTVLQDAYHPTETTTYAHLLLPAAQWSEKTGTMTNSERRVTLCQAFRQPPGEARADWQIFAEVGRRLGFAFDYTDAAAVFAEYVQVTAGRLCDLSGLSHELLAQAGPQQWPFPAGAEPTTESKRLYTKHHFAYADGRARFQPFHHLGVAEPPDDRYPLVLTVGRLYGHWHTQTRTGRIDKINKLHPSAFVEIHPRDADRYNISEGQAVVIRSRRGEGCFPAKVTTAISPGVLFVPMHWGALWGDRTEANALTHPAACPISGEPELKACAVQIEAASSTFTI
B4: Synechococcus sp. PCC 7942 NR (ferredoxin-dependent nitrate reductase) (Synechococcus elongatus PCC 7942 = FACHB-805; E233Q) (protein)
chain: MIDTAKTLCPYCGVGCGLEAVPPAQPGRATVRDREGTPIWQIRGDRQHPSSQGMVCVKGATVAESVSKSRLKYPMFRASLDDPFTEISWDEALDRLCDRIQQTQADYGKDGICFYGSGQFQTEDYYIAQKLVKGCLGTNNFDTNSRLCMSSAVSAYSLCLGSDGPPACYEDLDLADCLLIVGSNTAECHPILFNRYRKRHKQGGTNLIVVDPRCTPTAQVADLHLALKPGSDVALLNGLGWLLYQMGYVKKDFIANQTEGFEDWLAIIEDYPPQRTAELTGLAVAELVRAADLIASAQRWLSLWSMGVNQSIQGTAKATSLINLHLLTRQIGLPGCGPFSLTGQPNAMGGRETGGLAHLLPGYRKVIDPQHRADVETIWGLPMGSISPQPGRTAWQMIEGLEQGAVGFLWVAATNPAVSLPDVKRAQAALKRSPFTVLQDAYHPTETTTYAHLLLPAAQWSEKTGTMTNSERRVTLCQAFRQPPGEARADWQIFAEVGRRLGFAFDYTDAAAVFAEYVQVTAGRLCDLSGLSHELLAQAGPQQWPFPAGAEPTTESKRLYTKHHFAYADGRARFQPFHHLGVAEPPDDRYPLVLTVGRLYGHWHTQTRTGRIDKINKLHPSAFVEIHPRDADRYNISEGQAVVIRSRRGEGCFPAKVTTAISPGVLFVPMHWGALWGDRTEANALTHPAACPISGEPELKACAVQIEAASSTFTI
B5: Synechococcus sp. PCC 7942 NR (ferredoxin-dependent nitrate reductase) (Synechococcus elongatus PCC 7942 = FACHB-805; R211Q) (protein)
chain: MIDTAKTLCPYCGVGCGLEAVPPAQPGRATVRDREGTPIWQIRGDRQHPSSQGMVCVKGATVAESVSKSRLKYPMFRASLDDPFTEISWDEALDRLCDRIQQTQADYGKDGICFYGSGQFQTEDYYIAQKLVKGCLGTNNFDTNSRLCMSSAVSAYSLCLGSDGPPACYEDLDLADCLLIVGSNTAECHPILFNRYQKRHKQGGTNLIVVDPRCTPTAEVADLHLALKPGSDVALLNGLGWLLYQMGYVKKDFIANQTEGFEDWLAIIEDYPPQRTAELTGLAVAELVRAADLIASAQRWLSLWSMGVNQSIQGTAKATSLINLHLLTRQIGLPGCGPFSLTGQPNAMGGRETGGLAHLLPGYRKVIDPQHRADVETIWGLPMGSISPQPGRTAWQMIEGLEQGAVGFLWVAATNPAVSLPDVKRAQAALKRSPFTVLQDAYHPTETTTYAHLLLPAAQWSEKTGTMTNSERRVTLCQAFRQPPGEARADWQIFAEVGRRLGFAFDYTDAAAVFAEYVQVTAGRLCDLSGLSHELLAQAGPQQWPFPAGAEPTTESKRLYTKHHFAYADGRARFQPFHHLGVAEPPDDRYPLVLTVGRLYGHWHTQTRTGRIDKINKLHPSAFVEIHPRDADRYNISEGQAVVIRSRRGEGCFPAKVTTAISPGVLFVPMHWGALWGDRTEANALTHPAACPISGEPELKACAVQIEAASSTFTI
B6: Synechococcus sp. PCC 7942 NR (ferredoxin-dependent nitrate reductase) (Synechococcus elongatus PCC 7942 = FACHB-805; K628R) (protein)
chain: MIDTAKTLCPYCGVGCGLEAVPPAQPGRATVRDREGTPIWQIRGDRQHPSSQGMVCVKGATVAESVSKSRLKYPMFRASLDDPFTEISWDEALDRLCDRIQQTQADYGKDGICFYGSGQFQTEDYYIAQKLVKGCLGTNNFDTNSRLCMSSAVSAYSLCLGSDGPPACYEDLDLADCLLIVGSNTAECHPILFNRYRKRHKQGGTNLIVVDPRCTPTAEVADLHLALKPGSDVALLNGLGWLLYQMGYVKKDFIANQTEGFEDWLAIIEDYPPQRTAELTGLAVAELVRAADLIASAQRWLSLWSMGVNQSIQGTAKATSLINLHLLTRQIGLPGCGPFSLTGQPNAMGGRETGGLAHLLPGYRKVIDPQHRADVETIWGLPMGSISPQPGRTAWQMIEGLEQGAVGFLWVAATNPAVSLPDVKRAQAALKRSPFTVLQDAYHPTETTTYAHLLLPAAQWSEKTGTMTNSERRVTLCQAFRQPPGEARADWQIFAEVGRRLGFAFDYTDAAAVFAEYVQVTAGRLCDLSGLSHELLAQAGPQQWPFPAGAEPTTESKRLYTKHHFAYADGRARFQPFHHLGVAEPPDDRYPLVLTVGRLYGHWHTQTRTGRIDRINKLHPSAFVEIHPRDADRYNISEGQAVVIRSRRGEGCFPAKVTTAISPGVLFVPMHWGALWGDRTEANALTHPAACPISGEPELKACAVQIEAASSTFTI
B7: Synechococcus sp. PCC 7942 NR (ferredoxin-dependent nitrate reductase) (Synechococcus elongatus PCC 7942 = FACHB-805; R60Q) (protein)
chain: MIDTAKTLCPYCGVGCGLEAVPPAQPGRATVRDREGTPIWQIRGDQQHPSSQGMVCVKGATVAESVSKSRLKYPMFRASLDDPFTEISWDEALDRLCDRIQQTQADYGKDGICFYGSGQFQTEDYYIAQKLVKGCLGTNNFDTNSRLCMSSAVSAYSLCLGSDGPPACYEDLDLADCLLIVGSNTAECHPILFNRYRKRHKQGGTNLIVVDPRCTPTAEVADLHLALKPGSDVALLNGLGWLLYQMGYVKKDFIANQTEGFEDWLAIIEDYPPQRTAELTGLAVAELVRAADLIASAQRWLSLWSMGVNQSIQGTAKATSLINLHLLTRQIGLPGCGPFSLTGQPNAMGGRETGGLAHLLPGYRKVIDPQHRADVETIWGLPMGSISPQPGRTAWQMIEGLEQGAVGFLWVAATNPAVSLPDVKRAQAALKRSPFTVLQDAYHPTETTTYAHLLLPAAQWSEKTGTMTNSERRVTLCQAFRQPPGEARADWQIFAEVGRRLGFAFDYTDAAAVFAEYVQVTAGRLCDLSGLSHELLAQAGPQQWPFPAGAEPTTESKRLYTKHHFAYADGRARFQPFHHLGVAEPPDDRYPLVLTVGRLYGHWHTQTRTGRIDKINKLHPSAFVEIHPRDADRYNISEGQAVVIRSRRGEGCFPAKVTTAISPGVLFVPMHWGALWGDRTEANALTHPAACPISGEPELKACAVQIEAASSTFTI

What follows are proteins tested on O=[N+]([O-])O (assay: nitrate reduction with reduced Fd, Michaelis-Menten fit). Settings: saturating reduced Synechocystis sp. PCC 6803 ferredoxin as electron donor.
Format: biochemical, Synechococcus elongatus
With B1 the Km was 9.6 ± 1.0 µM. Protein B2 has a Km of 8.1 ± 0.7 µM. B3 showed a Km of 6.6 ± 1.0 µM. B4 gave a Km of 4.5 ± 0.4 µM. B5 was tested, and the Km was 7.0 ± 0.7 µM. In the case of B6, the Km is reported as 4.2 ± 0.5 µM. With B7 the Km was 55 ± 20 µM.
